Experimental findings from US20140038892A1 are described below.

Sequence of FGFR3-IIIc (P22607 23-806): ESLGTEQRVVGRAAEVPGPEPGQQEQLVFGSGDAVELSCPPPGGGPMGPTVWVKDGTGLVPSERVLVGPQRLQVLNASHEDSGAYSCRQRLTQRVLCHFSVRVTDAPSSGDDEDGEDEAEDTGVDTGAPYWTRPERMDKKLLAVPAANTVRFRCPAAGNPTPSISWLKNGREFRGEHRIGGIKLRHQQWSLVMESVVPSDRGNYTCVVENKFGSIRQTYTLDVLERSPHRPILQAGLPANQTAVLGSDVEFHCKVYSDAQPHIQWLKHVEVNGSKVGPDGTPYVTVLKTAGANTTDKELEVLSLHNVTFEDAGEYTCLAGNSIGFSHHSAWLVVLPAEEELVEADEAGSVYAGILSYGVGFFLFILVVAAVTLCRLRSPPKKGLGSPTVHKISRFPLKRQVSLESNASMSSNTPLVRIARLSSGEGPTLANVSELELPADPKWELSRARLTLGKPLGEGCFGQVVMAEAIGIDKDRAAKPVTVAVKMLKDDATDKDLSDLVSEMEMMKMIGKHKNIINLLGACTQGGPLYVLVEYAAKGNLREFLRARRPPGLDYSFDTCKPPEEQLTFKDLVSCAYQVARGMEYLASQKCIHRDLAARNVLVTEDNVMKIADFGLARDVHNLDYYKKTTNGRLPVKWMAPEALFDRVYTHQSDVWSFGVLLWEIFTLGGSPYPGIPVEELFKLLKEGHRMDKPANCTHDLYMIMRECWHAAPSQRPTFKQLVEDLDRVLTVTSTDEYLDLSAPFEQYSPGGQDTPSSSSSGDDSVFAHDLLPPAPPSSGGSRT
Sequence of FGF18 Δ51 - HA (234 Kd) conjugate (O76093 52-207, tags or fused parts left off): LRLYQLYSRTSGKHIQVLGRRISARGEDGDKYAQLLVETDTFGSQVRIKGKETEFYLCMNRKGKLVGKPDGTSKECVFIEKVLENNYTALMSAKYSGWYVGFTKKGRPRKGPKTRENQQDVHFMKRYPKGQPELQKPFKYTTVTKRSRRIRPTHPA
Sequence of FGF18 w.t. (O76093 28-207 limits assumed): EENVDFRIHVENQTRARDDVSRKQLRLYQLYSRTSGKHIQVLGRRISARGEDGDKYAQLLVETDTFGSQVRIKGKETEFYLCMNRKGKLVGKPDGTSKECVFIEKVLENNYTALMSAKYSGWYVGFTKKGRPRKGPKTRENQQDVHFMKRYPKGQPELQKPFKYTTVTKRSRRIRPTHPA
Sequence of FGF18 - HA (234 Kd) conjugate (O76093 28-207 limits assumed): as above
Sequence of FGF-18 delta33 (O76093 other isoform, or with tags, fused parts or gaps mutant limits assumed): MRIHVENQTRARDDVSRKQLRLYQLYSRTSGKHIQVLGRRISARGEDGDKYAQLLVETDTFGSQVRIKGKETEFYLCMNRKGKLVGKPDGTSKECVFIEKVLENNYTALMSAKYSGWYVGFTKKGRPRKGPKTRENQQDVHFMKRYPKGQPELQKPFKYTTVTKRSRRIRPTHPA
Sequence of FGF-18 delta51 (O76093 other isoform, or with tags, fused parts or gaps mutant limits assumed): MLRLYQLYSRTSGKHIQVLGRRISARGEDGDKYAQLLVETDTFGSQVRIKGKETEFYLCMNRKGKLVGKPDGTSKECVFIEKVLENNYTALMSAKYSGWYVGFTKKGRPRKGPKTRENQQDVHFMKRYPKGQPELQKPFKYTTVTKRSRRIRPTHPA
Sequence of FGF18 Δ33 - HA (234 Kd) conjugate (O76093 34-207, tags or fused parts left off): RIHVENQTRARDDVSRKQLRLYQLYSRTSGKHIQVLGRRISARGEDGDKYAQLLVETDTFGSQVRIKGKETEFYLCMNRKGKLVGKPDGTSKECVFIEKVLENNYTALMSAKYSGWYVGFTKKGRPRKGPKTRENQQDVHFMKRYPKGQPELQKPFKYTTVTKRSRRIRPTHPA

The assay has as its target FGFR3-IIIc (UniProt P22607). The experiment in a line: cell-based or functional assay.
“FGF2 (from UniProt P09038 134-288) (ligand)” registered a Mitogenic activity in FDCP cell lines assay (EC50) of 1 ng/mL and a Mitogenic activity, FGFR-transfected FDCP cell lines assay (EC50) of 1 ng/mL.

As for “FGF2 - CMC (90 Kd) conjugate (from UniProt P09038 134-288) (ligand)”, the Mitogenic activity FDCP-R3 (EC50) is below 3 ng/mL.

With “FGF2 - CMC (250 Kd) conjugate (from UniProt P09038 134-288) (ligand)”, the Mitogenic activity FDCP-R3 (EC50) was below 3 ng/mL.

In turn, “FGF2 - HA (17 Kd) conjugate (from UniProt P09038 134-288) (ligand)” had a Mitogenic activity FDCP-R3 (EC50) below 3 ng/mL.

On to “FGF2 - HA (74 Kd) conjugate (from UniProt P09038 134-288) (ligand)”, for which the Mitogenic activity FDCP-R3 (EC50) is below 5 ng/mL.

The substance “FGF2 - HA (132 Kd) conjugate (from UniProt P09038 134-288) (ligand)” registered a Mitogenic activity FDCP-R3 (EC50) below 5 ng/mL.

The substance “FGF2 - HA (234 Kd) conjugate (from UniProt P09038 134-288) (ligand)” registered a Mitogenic activity FDCP-R3 (EC50) below 5 ng/mL.

Substance “FGF2 conjugate with HA-hyd (10% hydrazido groups) - BMPS (from UniProt P09038 134-288) (ligand)” yielded a Mitogenic activity in FDCP cell lines assay, Conjugates EC50, +Hyaluronidase below 5 ng/mL and a Mitogenic activity in FDCP cell lines assay, Conjugates EC50, -Hyaluronidase above 20 ng/mL.

Regarding “FGF2 conjugate with HA-hyd (10% hydrazido groups) - EMCS (from UniProt P09038 134-288) (ligand)”, the Mitogenic activity in FDCP cell lines assay, Conjugates EC50, +Hyaluronidase is below 5 ng/mL and the Mitogenic activity in FDCP cell lines assay, Conjugates EC50, -Hyaluronidase is above 40 ng/mL.

In turn, “FGF2 conjugate with HA-hyd (10% hydrazido groups) - GMBS (from UniProt P09038 134-288) (ligand)” showed a Mitogenic activity in FDCP cell lines assay, Conjugates EC50, +Hyaluronidase below 5 ng/mL and a Mitogenic activity in FDCP cell lines assay, Conjugates EC50, -Hyaluronidase above 20 ng/mL.

Substance “FGF2 conjugate with HA-hyd (10% hydrazido groups) - SMPH (from UniProt P09038 134-288) (ligand)” came in with a Mitogenic activity in FDCP cell lines assay, Conjugates EC50, +Hyaluronidase below 5 ng/mL and a Mitogenic activity in FDCP cell lines assay, Conjugates EC50, -Hyaluronidase above 10 ng/mL.

As to “FGF2 conjugate with HA-hyd (40% hydrazido groups) - BMPS (from UniProt P09038 134-288) (ligand)”, the Mitogenic activity in FDCP cell lines assay, Conjugates EC50, +Hyaluronidase is above 15 ng/mL and the Mitogenic activity in FDCP cell lines assay, Conjugates EC50, -Hyaluronidase is above 15 ng/mL.

Consider “FGF2 conjugate with HA-hyd (40% hydrazido groups) - SMPH (from UniProt P09038 134-288) (ligand)”, for which the Mitogenic activity in FDCP cell lines assay, Conjugates EC50, +Hyaluronidase is below 5 ng/mL and the Mitogenic activity in FDCP cell lines assay, Conjugates EC50, -Hyaluronidase is below 5 ng/mL.

For “FGF18 - HA (234 Kd) conjugate (from UniProt O76093 28-207) (ligand)”, the Mitogenic activity FDCP-R3 (EC50) was below 10 ng/mL.

Turning to “FGF18 w.t. (from UniProt O76093 28-207) (ligand)”, the Mitogenic activity, FGFR-transfected FDCP cell lines assay (EC50) came to 5 ng/mL.

“FGF18 Δ33 - HA (234 Kd) conjugate (from UniProt O76093 34-207) (ligand)” gave a Mitogenic activity FDCP-R3 (EC50) below 6.8 ng/mL.

“FGF18 Δ51 - HA (234 Kd) conjugate (from UniProt O76093 52-207) (ligand)” showed a Mitogenic activity FDCP-R3 (EC50) below 12.5 ng/mL.

Take “FGF-18 delta33 (from UniProt O76093 34-207) (ligand)”: the Mitogenic activity, FGFR-transfected FDCP cell lines assay (EC50) is 3.5 ng/mL.

Consider “FGF-18 delta51 (from UniProt O76093 52-207) (ligand)”, for which the Mitogenic activity, FGFR-transfected FDCP cell lines assay (EC50) amounted to 5.5 ng/mL.
